Measured values taken from patent publication US10350158B2, “2′ fluoro-modified RNAs as immunostimulators” (DUKE UNIVERSITY, priority 2013, dated 2019).
Strand notation (5' to 3'): a small letter for the sugar, then the base; units joined by * are phosphorothioate-linked, units joined directly phosphodiester-linked; [ ] holds rarer units or linkages, { } end groups; capitals alone tell only the bases. {ppp} = triphosphate; r = 2'-OH (RNA); f = 2'-fluoro

How the values were obtained:
Human TLR7 = target: T1, Human TLR7 (Homo sapiens, UniProt Q9NYK1); test: IL-8 production by human TLR7-expressing HEK293 cells; type: cell-based
T1 construct: expressed in transfected cells; host or cells: HEK293 (HEK-TLR7), gift of Dr. Todd Brennan, Duke University
T1 sequence (Q9NYK1 27-1049): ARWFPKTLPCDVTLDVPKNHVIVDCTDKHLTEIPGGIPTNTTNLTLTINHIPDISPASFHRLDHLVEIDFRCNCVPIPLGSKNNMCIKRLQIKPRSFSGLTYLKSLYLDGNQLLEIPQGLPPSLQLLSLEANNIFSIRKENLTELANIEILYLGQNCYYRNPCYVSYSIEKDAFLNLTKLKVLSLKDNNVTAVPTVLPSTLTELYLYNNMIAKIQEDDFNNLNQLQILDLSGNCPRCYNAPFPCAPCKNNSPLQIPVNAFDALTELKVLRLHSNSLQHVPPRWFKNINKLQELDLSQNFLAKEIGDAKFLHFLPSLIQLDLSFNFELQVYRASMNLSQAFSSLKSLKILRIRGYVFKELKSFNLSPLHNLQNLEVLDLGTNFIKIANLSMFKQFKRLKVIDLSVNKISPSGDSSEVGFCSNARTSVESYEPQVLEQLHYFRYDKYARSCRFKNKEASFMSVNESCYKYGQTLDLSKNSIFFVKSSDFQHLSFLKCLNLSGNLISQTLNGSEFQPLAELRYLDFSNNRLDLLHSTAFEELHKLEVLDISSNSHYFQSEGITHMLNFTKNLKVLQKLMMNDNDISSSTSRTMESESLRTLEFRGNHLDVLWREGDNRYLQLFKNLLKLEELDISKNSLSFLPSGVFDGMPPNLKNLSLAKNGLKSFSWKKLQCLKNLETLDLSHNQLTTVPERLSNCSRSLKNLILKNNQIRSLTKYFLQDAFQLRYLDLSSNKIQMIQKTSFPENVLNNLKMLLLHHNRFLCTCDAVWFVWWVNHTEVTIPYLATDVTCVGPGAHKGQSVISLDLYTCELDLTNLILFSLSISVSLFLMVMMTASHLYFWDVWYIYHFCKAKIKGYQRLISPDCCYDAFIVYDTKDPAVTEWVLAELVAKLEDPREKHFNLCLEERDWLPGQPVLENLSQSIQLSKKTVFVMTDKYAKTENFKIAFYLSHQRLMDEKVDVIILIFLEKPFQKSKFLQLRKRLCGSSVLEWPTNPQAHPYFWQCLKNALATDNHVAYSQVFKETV
Protocol: The human TLR3 reporter cell, HEK-hTLR3-NFκB/SEAP was purchased from Invivogen. These cells were stably co-transfected with the human TLR3 gene and an inducible SEAP (secreted embryonic alkaline phosphatase) reporter gene into HEK293 cells. The SEAP gene is placed under the control of NF-κB and AP-1. […] SEAP gene expression was measured using the SEAP detection media QUANTI-BLUE (Invivogen), according to the manufacturer's instructions. FIG. 3B is a graph showing that TLR7 is not stimulated by the ssRNAs. Human TLR7-expressing HEK293 cells were kindly provided by Dr. Todd Brennan (Duke University, Durham, N.C.). Treatment with R848 but not with polyI:C, polyI:C-DF and 5′ppp 2′F 10F-DF complexes stimulated HEK-TLR7 cells to produce the inflammatory cytokine IL-8. The data represent the mean of two experiments. Error bars represent the S.D.

WM266-4 cells = test: Apoptosis / cell death by Annexin V-PE and 7-AAD flow cytometry; type: cell-based, human; details: aptamer treated with bacterial alkaline phosphatase (BAP), 0.125 μg/ml
Protocol: For the intracellular delivery of immune stimulatory RNAs, RNAs were transfected with the DharmaFECT® Duo liposomal transfection reagent (Thermo Scientific, Waltham, Mass.) at a transfection reagent (μl):RNA (μg) ratio of 3.75:1, according to the manufacturer's instructions. Unless otherwise stated, for the induction of innate immune responses and apoptosis, immune stimulatory RNAs (500 ng/ml) were transfected into 50 to 70% confluent cells. Cells were incubated with an RNA-transfection agent complex for 5 h, followed by replenishment with fresh culture medium. […]
Growth inhibition relative to untreated cells was quantified at 72 h after RNA transfection using an MTT Cell Proliferation Assay Kit (Cayman Chemicals, Ann Arbor, Mich.), according to the manufacturer's instructions. The percent growth inhibition was calculated by using the following equation: % growth inhibition=([O.D.]untreated−[O.D.]treated)/[O.D.]untreated×100. The induction of cell death was measured 48 h after RNA transfection by flow cytometry after staining with Annexin V-PE and 7-Aminoactinomycin D (7-AAD) using the PE Annexin V Apoptosis Detection Kit I (BD Biosciences, San Jose, Calif.) and analyzed using the CellQuest software (BD Biosciences).

B1: 10F: 5′ppp 2′F pyrimidine ssRNA aptamer, 71 nt, human melanocytic cell-targeting, SEQ ID NO: 4 (nucleic acid)
chain: {ppp}-rGrGrGrArGrGrAfCrGrAfUrGfCrGrGfUrAfCfCfUrGrAfCrArGfCrAfUfCfUfUrGrAfUrArAfUrGrGfUfCfCfUrAfCrGrGrArGfCfCrGfUfUfCfCrArGrAfCrGrAfCfUfCrGfCfCfCrGrA
stimulation of HEK-TLR7 cells to produce IL-8 (Human TLR7): not | apoptosis after dephosphorylation of the aptamer (WM266-4 cells): partially prevented
